Reference: US20240315219A1, “ANIMAL MODEL FOR DISEASES ASSOCIATED WITH ABSENCE OR REDUCTION OF SOCIAL DOMINANCE, AND PHARMACEUTICAL COMPOSITION FOR PREVENTING OR TREATING DISEASES” (ADEL, Inc., priority 2021, published 2024)

Legend:
[1] = test system: CRTC3 KO mice; assay: Tube dominance test, CRTC3 KO mice housed with WT mice; type: in vivo, mouse
Method: (§1) The apparatus for the tube dominance test was made of a transparent plastic tube with a length of 30 cm and an inner diameter of 2.5 cm. To allow the mice to adapt to passing through the inside of the tube, the respective mice were trained to pass across the tube alternately on both sides for two or three consecutive days. During the training period, care was taken to ensure that the mice passed through the tube as naturally as possible without causing stress. This test was performed after identifying that all mice could freely pass through the tube without stress.
During the dominance test period, a total of 2 mice, one at each end of the tube, were placed to meet in the middle of the tube. In a case where one mouse pushed the other mouse out of the tube, one (1) winning point was earned. The test was repeated three times. […] For each test, win or loss was determined by winning points. […]
(§2) First, starting at 1 month of age, the CRTC3 KO mice and the WT mice were housed in one group and raised together for 2 months. […] To determine changes in ranking of the mice in the group, social dominance ranking was evaluated by a tube dominance test daily for 15 days starting at 3 months of age. The respective mice in the group were tested in turn, and dominance ranking of the mice in the group was determined based on their winning points. […]

[2] = test system: CRTC3 KO mice; assay: Warm spot test; type: in vivo, mouse; conditions: ICV osmotic pump, before vs after
Method: The warm spot test was performed using the following apparatus and method. The test apparatus was a box with dimensions of 30 cm by 30 cm, and the bottom was kept cold by ice. A fan-shaped heating mat of approximately 3 cm was laid one corner of the bottom to warm only that part of the bottom. In the first test, the mice were placed in a box with all bottom surfaces cold and kept thereon for 30 minutes to get used to the environment. After 30 minutes, the mice were moved to a box with a heating mat on one corner of the bottom, and the time each mouse occupied the bottom surface with the heating mat was measured for 20 minutes. Based on the measured time, each mouse's ranking in the group was determined.
First, starting at 1 month of age, the CRTC3 KO mice and the WT mice were housed in one group and raised together for 2 months. This allowed social ranking to be naturally formed among the mice in the same group. To determine changes in ranking of the mice in the group, social dominance ranking was evaluated by a tube dominance test daily for 15 days starting at 3 months of age. The respective mice in the group were tested in turn, and dominance ranking of the mice in the group was determined based on their winning points. […]

[3] = test system: C57BL/6 mice; assay: Tube dominance test, lowest-ranked mouse in C57BL/6 mouse group; type: in vivo; conditions: lowest-ranked C57BL/6 mouse, intracerebroventricular via osmotic pump
Method: as §1
During the dominance test period, a total of 2 mice, one at each end of the tube, were placed to meet in the middle of the tube. In a case where one mouse pushed the other mouse out of the tube, one (1) winning point was earned. The test was repeated three times. […] For each test, win or loss was determined by winning points.
as §2

[4] = test system: CRTC3 KO primary astrocytes; assay: Cell shape index (CSI) of astrocytes, GFAP immunocytochemistry; type: cell-based, mouse; conditions: AREG 200 ng/ml, vs WT astrocytes
Method: Next, to identify localization of CRTC3 in the cellular changes induced in astrocytes, comparison of astrocyte shape was performed between the CRTC3 KO mice and the WT mice. The shape of the cells was observed using GFAP as an astrocyte marker through fluorescent staining according to the method described in Experimental Example 1.4.
To more accurately compare the astrocyte shapes, complexity of the astrocyte shape was determined using the cell shape index (CSI) defined as follows (in the formula, P is a cell's perimeter and A is a cell's area).
Immunocytochemistry was performed as follows. First, a 12 mm coverslip (Marienfeld, Germany) coated with PDL was placed in a 24-well plate, and cells were plated thereon. Then, the cells were fixed with 4% paraformaldehyde (Biosesang, Korea) for 10 minutes. The cells were washed three times with PBS, and then subjected to permeabilization with PBS containing 0.1% Triton X-100 for 5 minutes at room temperature. The cells were washed again three times and blocked with PBS containing 5% bovine serum albumin (BSA) at 37° C. for 30 minutes. The cells were washed three times and incubated with mouse anti-GFAP antibody (Chemicon-Millipore, USA) overnight at 4° C. […] Then, each sample was mounted using a fluorescence mounting solution (DAKO, USA) for imaging.

B1: AREG: Recombinant mouse amphiregulin from R&D Systems, SEQ ID NO: 11; EGF receptor ligand (protein, listed as Mus musculus)
chain: SVRVEQVIKPKKNKTEGEKSTEKPKRKKKGGKNGKGRRNKKKKNPCTAKFQNFCIHGECRYIENLEVVTCNCHQDYFGERCGEKSMKTHSEDDKDLSK
modifications: Mouse AREG Protein
notes: EGF receptor ligand
In the case of B1, the “cages in which changes (increase) in social dominance ranking were observed after administration” value ([1]; CRTC3 KO mice with low ranking, housed with WT mice, intracerebroventricular via osmotic pump) is reported as 81%, the “winning points after vs before administration” value ([1]; CRTC3 KO mice, ICV osmotic pump) is reported as “increase in winning points” and the “social dominance ranking in warm spot test after administration” value [2] is reported as “increased social dominance ranking”. For the same molecule, the “time occupying the warm spot after administration” value [2] was “increase in the time they occupied the warm spot”, the “cages in which ranking of the lowest-ranked mouse increased after administration” value [3] was 71% and the “cell shape index (CSI)” value [4] was “increased a CSI level of the primary astrocytes in the CRTC3 KO mice to that of the WT astrocytes”.
